In experiment [1] the target is EGFR (UniProt P00533). In words: cell-based or functional assay.
Another experiment has as its target CD33 (UniProt P20138). Kind of experiment: flow cytometry on CD33-expressing MV411 cells, Alexa Fluor 488 anti-human IgG Fab as secondary, on ice.
The target in experiment [2] is EGFR (UniProt P00533). Kind of experiment: flow cytometry on MDAMB468 cells, Alexa Fluor 488 anti-human IgG Fab as secondary, on ice. In general terms: Flow cytometry measures light scatter and fluorescence of single cells or particles in a stream.

Consider C225-L328C-GNE987 (antibody), for which, in the experiment with EGFR [1], the IC50 cell viability, MDAMB468 cells, three independent experiments is 0.8 nM and the remaining nuclear BRD4 (immunofluorescence) in EGFR-expressing MDAMB468 cells at 4 nM came to 44.2%.

Take “CD33-binding antibody Gemtuzumab (IgG4-PG-SPLE)”: in the experiment with CD33, the EC50 (read off the curve) (commonly the concentration needed to bring the measured effect to its halfway point) was 0.3 nM. In other words, the sub-nanomolar range.

EGFR-binding antibody Cetuximab had an EC50 (read off the curve) with EGFR [2] of 0.6 nM.
